The target in assay [1] is L-selectin on Jurkat cells (UniProt P14151). Kind of assay: cell-based or functional assay.
The target of assay [2] is CD34 on CHO/FTVII/C2GnT cells cotransfected with KSGal6ST and HEC-GlcNAc6ST cDNAs. Kind of assay: flow cytometry; CHO/FTVII/C2GnT cells with CD34 (2 µg), 0.5 µg KSGal6ST and 1.0 µg HEC-GlcNAc6ST cDNA.
Assay [3] has as its target CD34 on CHO/FTVII/C2GnT cells cotransfected with HEC-GlcNAc6ST cDNA. Put plainly: flow cytometry; CHO/FTVII/C2GnT cells with CD34 (2 µg) and 1 µg HEC-GlcNAc6ST cDNA.
The target is the same in assay [4]. Kind of assay: flow cytometry; CHO/FTVII/C2GnT cells with CD34 (2 µg) and 1.5 µg HEC-GlcNAc6ST cDNA. (Flow cytometry measures light scatter and fluorescence of single cells or particles in a stream.)
The target of assay [5] is CD34 on CHO/FTVII/C2GnT cells cotransfected with KSGal6ST cDNA. Put plainly: flow cytometry; CHO/FTVII/C2GnT cells with CD34 (2 µg) and 1.5 µg KSGal6ST cDNA.
Sequence of CD34 on CHO/FTVII/C2GnT cells cotransfected with KSGal6ST cDNA (P28906 32-385): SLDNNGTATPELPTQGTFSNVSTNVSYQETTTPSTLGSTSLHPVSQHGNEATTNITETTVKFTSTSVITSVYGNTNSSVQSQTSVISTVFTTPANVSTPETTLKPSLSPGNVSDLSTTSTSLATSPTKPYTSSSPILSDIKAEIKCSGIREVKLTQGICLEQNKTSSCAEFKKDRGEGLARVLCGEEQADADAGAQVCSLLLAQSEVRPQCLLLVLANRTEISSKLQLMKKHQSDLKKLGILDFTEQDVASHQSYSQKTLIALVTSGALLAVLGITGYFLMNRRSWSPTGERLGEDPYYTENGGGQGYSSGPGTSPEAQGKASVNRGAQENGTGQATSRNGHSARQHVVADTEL
Assay [6] deals with CD34 on CHO/FTVII/C2GnT cells cotransfected with KSGal6ST and HEC-GlcNAc6ST cDNAs. Put plainly: flow cytometry; CHO/FTVII/C2GnT cells with CD34 (2 µg), 0.5 µg KSGal6ST and 0.5 µg HEC-GlcNAc6ST cDNA.
Assay [7] shares this target. Kind of assay: flow cytometry; CHO/FTVII/C2GnT cells with CD34 (2 µg), 1 µg KSGal6ST and 0.5 µg HEC-GlcNAc6ST cDNA.
In assay [8] the target is CD34 on CHO/FTVII/C2GnT cells cotransfected with KSGal6ST cDNA. Put plainly: flow cytometry; CHO/FTVII/C2GnT cells with CD34 (2 µg) and 1.0 µg KSGal6ST cDNA.
Assay [9] deals with CD34 on CHO/FTVII/C2GnT cells, no sulfotransferase cDNA. Put plainly: flow cytometry; CHO/FTVII/C2GnT cells with CD34 cDNA alone.
Sequence of CD34 on CHO/FTVII/C2GnT cells, no sulfotransferase cDNA (P28906 32-385): as above
The target of the next assay is T1, rGlyCAM-1/IgG (human, UniProt Q02596 20-151 (mouse entry), limits assumed, not fucosylated by FucT-VII, no sulfotransferase co-transfected).
T1 sequence (looked up): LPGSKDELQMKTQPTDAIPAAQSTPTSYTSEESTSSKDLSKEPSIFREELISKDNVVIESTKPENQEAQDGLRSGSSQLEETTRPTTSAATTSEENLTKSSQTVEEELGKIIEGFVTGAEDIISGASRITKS
Kind of assay: cell-based or functional assay.

In assay [10] the target is T2, rGlyCAM-1/IgG FT HEC-GlcNAc6ST (human, UniProt Q02596 20-151 (mouse entry), limits assumed, glycans made in COS cells co-transfected with C2GnT, FucT-VII and HEC-GlcNAc6ST (fucosylated, GlcNAc-6-sulfate)).
T2 sequence (looked up): T1 sequence (looked up)
Kind of assay: cell-based or functional assay.

The target in assay [11] is T3, rGlyCAM-1/IgG FT KSGal6ST (human, UniProt Q02596 20-151 (mouse entry), limits assumed, glycans made in COS cells co-transfected with C2GnT, FucT-VII and KSGal6ST (fucosylated, Gal-6-sulfate)).
T3 sequence (looked up): T1 sequence (looked up)
Kind of assay: cell-based or functional assay.

The target of assay [12] is T4, rGlyCAM-1/IgG FT huGlcNAc6ST (human, UniProt Q02596 20-151 (mouse entry), limits assumed, glycans made in COS cells co-transfected with C2GnT, FucT-VII and huGlcNAc6ST (fucosylated, GlcNAc-6-sulfate)).
T4 sequence (looked up): T1 sequence (looked up)
Put plainly: cell-based or functional assay.

Some results are limits rather than exact numbers.

This is an account of results in US6933142 (University of California, dated 2005).

Sequence of CD34 on CHO/FTVII/C2GnT cells cotransfected with KSGal6ST and HEC-GlcNAc6ST cDNAs (P28906 32-385): as the sequence (P28906 32-385) above
Sequence of CD34 on CHO/FTVII/C2GnT cells cotransfected with HEC-GlcNAc6ST cDNA (P28906 32-385): as the sequence (P28906 32-385) above

As to DREG56 (antibody), in assay [1], the Rolling of Jurkat cells on rGlyCAM-1/IgG FT after treatment with 5 µg/ml DREG56 (rolling cells) was 0.

Turning to “L-selectin/IgM chimera (from UniProt P18337 39-332; P01871 106-453) (Fc fusion)”, the MFI (background subtracted) was 830 MFI in assay [2]; 114 MFI in [3]; 163 MFI in [4]; 391 MFI in assay [5]; 935 MFI in assay [6]; 917 MFI in assay [7]. This molecule showed an MFI (background subtracted) in assay [8] of 364 MFI. Also, the MFI (background signal) in [9] stood at 139 MFI.

B1: human HEC-GlcNAc6ST (enzyme)
chain: MLLPKKMKLLLFLVSQMAILALFFHMYSHNISSLSMKAQPERMHVLVLSSWRSGSSFVGQLFGQHPDVFYLMEPAWHVWMTFKQSTAWMLHMAVRDLIRAVFLCDMSVFDAYMEPGPRRQSSLFQWENSRALCSAPACDIIPQDEIIPRAHCRLLCSQQPFEVVEKACRSYSHVVLKEVRFFNLQSLYPLLKDPSLNLHIVHLVRDPRAVFRSRERTKGDLMIDSRIVMGQHEQKLKKEDQPYYVMQVICQSQLEIYKTIQSLPKALQERYLLVRYEDLARAPVAQTSRMYEFVGLEFLPHLQTWVHNITRGKGMGDHAFHTNARDALNVSQAWRWSLPYEKVSRLQKACGDAMNLLGYRHVRSEQEQRNLLLDLLSTWTVPEQIH
For the molecule B1, the “incorporation of ^35S-SO4 into the GlyCAM-1 chimera in co-transfected COS cells” value with rGlyCAM-1/IgG was over 10 fold.

B2: L-selectin on Jurkat cells (receptor, UniProt P14151 39-372, looked up)
chain: WTYHYSEKPMNWQRARRFCRDNYTDLVAIQNKAEIEYLEKTLPFSRSYYWIGIRKIGGIWTWVGTNKSLTEEAENWGDGEPNNKKNKEDCVEIYIKRNKDAGKWNDDACHKLKAALCYTASCQPWSCSGHGECVEIINNYTCNCDVGYYGPQCQFVIQCEPLEAPELGTMDCTHPLGNFSFSSQCAFSCSEGTNLTGIEETTCGPFGNWSSPEPTCQVIQCEPLSAPDLGIMNCSHPLASFSFTSACTFICSEGTELIGKKKTICESSGIWSNPSPICQKLDKSFSMIKEGDYNPLFIPVAVMVTAFSGLAFIIWLARRLKKGKKSKRSMNDPY
As for B2, the “fraction of tethered cells relative to non-sulfated GlyCAM-1/IgG (FT)” value in [10] was determined as 2 fold; in assay [11], 6 fold; in [12] it was 2 fold.
